In patent US20200093866A1, “Use of selected single cobrotoxin molecule as an analgesic” (priority 2018, published 2020):

B1: cobrotoxin (protein, UniProt P60770 22-83, looked up)
Cobrotoxin: LECHNQQSSQTPTTTGCSGGETNCYKKRWRDHRGYRTERGCGCPSVKNGIEINCCTTDRCNN
B2: Chain A, Cobrotoxin (protein, UniProt P60770 22-83, looked up)
Cobrotoxin: B1 Cobrotoxin

What was measured:
nAChR = target: T1, nAChR (Rattus norvegicus, UniProt P09660+P25108+P25110); experiment: 125I labeled-αBtx-nAChR binding inhibition test (radio-immunoprecipitation); conditions: nAChR crude extract from rat skeletal muscle; approximate
T1 construct: nAChR crude extract from rat skeletal muscle; from tissue; host or cells: rat skeletal muscle (crude extract)
T1 sequence (P25108 21-457): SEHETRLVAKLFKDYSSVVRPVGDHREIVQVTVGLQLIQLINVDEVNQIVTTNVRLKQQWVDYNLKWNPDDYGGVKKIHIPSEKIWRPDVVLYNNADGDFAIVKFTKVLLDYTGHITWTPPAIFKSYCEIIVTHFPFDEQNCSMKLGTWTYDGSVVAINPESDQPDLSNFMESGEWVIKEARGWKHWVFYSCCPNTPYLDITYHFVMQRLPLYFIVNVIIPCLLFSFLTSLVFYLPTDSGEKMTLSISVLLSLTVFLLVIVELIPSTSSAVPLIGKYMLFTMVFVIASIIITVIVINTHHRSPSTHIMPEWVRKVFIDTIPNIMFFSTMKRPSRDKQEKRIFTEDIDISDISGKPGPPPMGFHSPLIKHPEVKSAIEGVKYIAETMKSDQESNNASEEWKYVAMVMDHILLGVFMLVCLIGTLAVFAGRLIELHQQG
T1 sequence (P25110 22-517): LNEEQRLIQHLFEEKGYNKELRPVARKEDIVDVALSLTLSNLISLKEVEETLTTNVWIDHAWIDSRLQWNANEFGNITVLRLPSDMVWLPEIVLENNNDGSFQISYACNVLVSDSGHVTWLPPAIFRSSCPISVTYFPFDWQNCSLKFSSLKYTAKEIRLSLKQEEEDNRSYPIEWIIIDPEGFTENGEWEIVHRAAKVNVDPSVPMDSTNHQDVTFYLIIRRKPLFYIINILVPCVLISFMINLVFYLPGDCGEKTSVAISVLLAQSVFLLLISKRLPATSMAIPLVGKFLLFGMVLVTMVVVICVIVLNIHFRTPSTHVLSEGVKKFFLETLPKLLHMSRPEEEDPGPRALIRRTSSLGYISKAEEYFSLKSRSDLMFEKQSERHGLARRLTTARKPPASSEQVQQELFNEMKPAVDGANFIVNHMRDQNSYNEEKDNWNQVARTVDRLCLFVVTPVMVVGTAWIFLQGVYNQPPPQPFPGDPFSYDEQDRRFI
T1 sequence (P09660 21-494): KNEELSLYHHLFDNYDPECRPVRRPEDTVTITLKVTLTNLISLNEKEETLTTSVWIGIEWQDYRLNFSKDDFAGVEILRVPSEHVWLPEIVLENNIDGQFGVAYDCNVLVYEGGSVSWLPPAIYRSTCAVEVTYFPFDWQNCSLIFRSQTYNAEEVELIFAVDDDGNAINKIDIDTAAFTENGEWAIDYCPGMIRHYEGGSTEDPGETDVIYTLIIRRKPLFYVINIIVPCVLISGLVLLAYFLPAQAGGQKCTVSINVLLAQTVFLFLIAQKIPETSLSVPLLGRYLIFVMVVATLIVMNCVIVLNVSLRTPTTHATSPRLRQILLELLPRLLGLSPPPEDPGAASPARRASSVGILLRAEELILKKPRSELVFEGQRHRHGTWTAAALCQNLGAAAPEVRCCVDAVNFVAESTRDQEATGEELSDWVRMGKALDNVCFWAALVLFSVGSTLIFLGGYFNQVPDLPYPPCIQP
T1 sequence (P25109 24-501 partner): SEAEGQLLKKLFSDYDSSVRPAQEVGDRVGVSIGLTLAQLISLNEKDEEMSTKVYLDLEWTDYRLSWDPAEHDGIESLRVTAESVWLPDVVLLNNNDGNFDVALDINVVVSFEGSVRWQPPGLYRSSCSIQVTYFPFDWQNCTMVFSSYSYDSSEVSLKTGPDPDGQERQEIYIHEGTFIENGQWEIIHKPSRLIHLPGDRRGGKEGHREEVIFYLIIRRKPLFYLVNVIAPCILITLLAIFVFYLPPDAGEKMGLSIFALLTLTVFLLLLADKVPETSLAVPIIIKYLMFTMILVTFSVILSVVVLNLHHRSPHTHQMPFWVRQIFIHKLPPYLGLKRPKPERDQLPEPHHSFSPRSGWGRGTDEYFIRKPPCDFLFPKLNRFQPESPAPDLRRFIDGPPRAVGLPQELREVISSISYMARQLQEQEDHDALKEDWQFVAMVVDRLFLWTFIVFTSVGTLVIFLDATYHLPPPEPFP
From the text: As shown in FIG.-2, a total of 12 fractions from the aforementioned ion-exchange chromatography were further desalted and purified by a reverse-phase HPLC (RP-HPLC) with Vydac RP-C18 (4.6×250 mm, 5.0 um). Fractions A and B were identified as high-affinity cobrotoxins with enhanced binding ability to nAChR in a later 125I labeled-αBtx-nAChR binding inhibition test. • 2) Screening and selection of single cobrotoxin molecule with high affinity binding to nAChR for better drug target engagement The 125I labeled-α-bungarotoxin(αBtx)-nAChR binding inhibition test was performed to evaluate the affinities of different cobrotoxins molecules. […] Higher the affinity of cobrotoxin with nAChR, greater the inhibitory rate toward α-bungarotoxin's binding to nAChR. In our radio-immunoprecipitation test, only nAChR bonded α-bungarotoxin will be precipitated with nicotinic acetylcholine antibody (mAb 35) and Rabbit Anti-Rat IgG, whilst unbounded α-bungarotoxin will be washed out. By testing the concentration of bonded α-bungarotoxin, we can determine the inhibitory rates of different cobrotoxins molecules isolated in step 1).
Calculation of “125I-αBtx-nAChR binding inhibitory rate (%)” […]
The 125I-αBtx-nAChR binding inhibition experiment process is performed and described in following sequence: • i. […] The (Bq) value per second was measured using the gamma radioimmunoassay counter.

Kunming mice [1] = experiment: Respiratory inhibition test; assay type: in vivo; conditions: effective dose of 60 μg/kg, 10 Kunming mice
From the text: 4) Respiratory inhibition test Chain A, Cobrotoxin and Chain A, Cobrotoxin B were separately administered to 10 Kunming mice of 20±2 g.

[2] = Quantitative microdialysis of unbound brain extracellular fluid (bECF) concentration after IV injection; assay type: in vivo, rat; conditions: rats, 125I-labeled, 120 μg, dialysate over 360 minutes, FIG. 4
From the text: The estimated molecular weights of Chain A, Cobrotoxin, Chain A, Cobrotoxin B are 6.9±0.6 KDa; the estimated molecular weights of a cobrotoxins complexes extracted from crude venom ranged from approximately 6.5 KDa to 15 KDa. Quantitative microdialysis (QMD) is used to determine the absolute unbound brain extracellular fluid (bECF) concentration of Chain A, Cobrotoxin, Chain A, Cobrotoxin B, and the cobrotoxins complexes. QMD is the only technique that enables sampling of bECF in conscious animals and provides direct evidence of exposure at extracellular target sites (Kielbasa and Stratford, Jr. 2015)
QMD consists of implanting a probe in rat (FIG.-3). The membrane of the probe will allow the exchange of perfusate with bECF, so the concentration of Chain A, Cobrotoxin, Chain A, Cobrotoxin B, and a cobrotoxins complexes in bECF could be measured through dialysate. […] In response, an in vivo recovery rate test of the probe (MD-2200) was performed on 125I-labeled Chain A, Cobrotoxin, Chain A, Cobrotoxin B, and a cobrotoxins complexes, each with three different concentrations of 5, 25, and 50 ng/ml as perfusate, with a flow rate of 2 μL/min was perfused through the probe. During microdialysis, the dialysate was collected every 10 minutes for an hour, then tested using SN629B-radioimmunoassay counter to calculate cpm. […] The recovery rate (by loss) % was calculated as: […]

Wistar rats = experiment: Tail flick test (thermal radiation), Periaqueductal Gray injection; assay type: in vivo; conditions: PAG injection; for latency induced by thermal radiation (tail flick): 1.5, 3.0 and 6.0 μg/kg; for time at which analgesic effect appeared / time at which analgesic effect peaked: after drug administration; for maximum increase of pain threshold: tail flick
Method: Most commonly, an intense light beam is focused on the animal's tail and a timer starts. When the animal flicks its tail, the timer stops and the recorded time (latency) is a measure of the pain threshold.
METHODS: Periaqueductal Gray (PAG) was injected with selected cobrotoxin molecule in rats, and the central analgesic effect was evaluated by the tail flick due to thermal radiation. 20 Wistar rats with a weight of 200±20 g were divided into 2 groups, 10 per group. […] The analgesic effect of Chain A, Cobrotoxin and Chain A, Cobrotoxin B appeared in 10˜15 minutes and peaked at 25˜30 minutes after drug administration. The maximum increase of pain threshold was over 200%.

Kunming mice [3] = experiment: Acetic acid writhing test, parenteral (iv) injection; assay type: in vivo; conditions: for inhibitory rate of mice writhing / time at which analgesic effect started: 60 μg/kg iv; for inhibitory rate of mice writhing: 90 minutes after administration; for time at which analgesic effect started / frequency of writhing induced by acetic acid / ED50 of the anti-nociceptive effect of acetic acid induced writhing: mice; for frequency of writhing induced by acetic acid: 30, 45 or 60 μg/kg iv; for ED50 of the anti-nociceptive effect of acetic acid induced writhing: iv
Method: Writhing test for the evaluation of analgesic effect by parenteral injection The writhing test is a chemical method used to induce pain of peripheral origin by injection of irritant principles like acetic acid in mice. Analgesic effect of the test compound is inferred from the decrease in the frequency of writhing.
METHOD: A total number of 60 Kunming mice were used, 10 per group, with a weight of 20±2 g. […] At dose of 60 μg/kg (iv), The analgesic effect started at 30 minutes, and could reach 60˜70% inhibitory rate of mice writhing at 90 minutes after administration. The ED50 of the anti-nociceptive effect of acetic acid induced writhing was 40˜50 μg/kg in the writhing test for Chain A, Cobrotoxin and Chain A, Cobrotoxin B.

Kunming mice [4] = experiment: Acetic acid writhing test, nasal administration; assay type: in vivo; conditions: for frequency of writhing induced by acetic acid: 30, 45 or 60 μg/kg nasal; for frequency of writhing induced by acetic acid / ED50 of the anti-nociceptive effect of acetic acid induced writhing / time at which analgesic effect started: mice; for duration of analgesic effect / ED50 of the anti-nociceptive effect of acetic acid induced writhing / time at which analgesic effect started: nasal administration; for duration of analgesic effect: after drug administration
Method: Writhing test for the evaluation of analgesic effect by nasal administration METHOD: A total number of 60 Kunming mice were used, 10 per group, with a weight of 20±2 g. […] The analgesic effect started at 30 minutes and lasted at least for 6 hours after drug administration.

Kunming mice [5] = experiment: Acetic acid writhing test, oral administration; assay type: in vivo; conditions: for frequency of writhing induced by acetic acid: 160, 320 or 480 μg/kg oral; for ED50 of the anti-nociceptive effect of acetic acid induced writhing: oral administration
From the text: Writhing test for the evaluation of analgesic effect by oral administration METHOD: A total number of 60 Kunming mice were used, 10 per group, with a weight of 20±2 g.

mice = conditions: i.c.v. injection, mice (Chen and Robinson, 1990); cited from earlier work

| Molecule | 125I-αBtx-nAChR binding inhibitory rate (nAChR) | respiratory inhibition (Kunming mice [1]) | time course of reaching bECF brain concentration versus cobrotoxins complexes [2] | latency induced by thermal radiation (tail flick) (Wistar rats) | ED50 of the antinociceptive effect of thermal radiation-induced tail flick (Wistar rats) | time at which analgesic effect appeared (Wistar rats) | time at which analgesic effect peaked (Wistar rats) | maximum increase of pain threshold (Wistar rats) | inhibitory rate of mice writhing (Kunming mice [3]) | time at which analgesic effect started (Kunming mice [3]) | frequency of writhing induced by acetic acid (Kunming mice [3]) | ED50 of the anti-nociceptive effect of acetic acid induced writhing (Kunming mice [3]) | frequency of writhing induced by acetic acid (Kunming mice [4]) | duration of analgesic effect (Kunming mice [4]) | ED50 of the anti-nociceptive effect of acetic acid induced writhing (Kunming mice [4]) | time at which analgesic effect started (Kunming mice [4]) | frequency of writhing induced by acetic acid (Kunming mice [5]) | ED50 of the anti-nociceptive effect of acetic acid induced writhing (Kunming mice [5]) | antinociceptive response in tail-flick test (mice) |
| --- | --- | --- | --- | --- | --- | --- | --- | --- | --- | --- | --- | --- | --- | --- | --- | --- | --- | --- | --- |
| Chain A, Cobrotoxin B | 40%-50% | No respiratory inhibition was observed | always ahead of the cobrotoxins complexes in reaching a specific concentration | dose-dependent increase | 3.3˜4.0 μg/kg | 10˜15 minutes | 25˜30 minutes | over 200% | 60˜70% | 30 min | dose-dependent decrease | 40˜50 μg/kg | dose-dependent decrease | ≥ 6 h | 38˜46 μg/kg | 30 min | dose-dependent decrease | 300˜350 μg/kg | – |
| B1 | – | – | – | – | – | – | – | – | – | – | – | – | – | – | – | – | – | – | produced an antinociceptive response |
| B2 | 40%-50% | No respiratory inhibition was observed | always ahead of the cobrotoxins complexes in reaching a specific concentration | dose-dependent increase | 3.3˜4.0 μg/kg | 10˜15 minutes | 25˜30 minutes | over 200% | 60˜70% | 30 min | dose-dependent decrease | 40˜50 μg/kg | dose-dependent decrease | ≥ 6 h | 38˜46 μg/kg | 30 min | dose-dependent decrease | 300˜350 μg/kg | – |
